From publication PMC5689087 (Structure (London, England : 1993), 2017)
Blank lines part the entries; values can stand above or below the binder they belong to. Where no end group is shown, it is not given here. The star is where a group is joined. FITC = O=C1OC2(c3ccc(O)cc3Oc3cc(O)ccc32)c2ccc(NC(=S)*)cc21

Legend:
[1] = molecular target: human αVβ3 integrin ectodomain (purchased, lyophilized) (human, UniProt P06756;P05106); experiment: SPR
[2] = molecular target: human αVβ3 integrin ectodomain (purchased, lyophilized) (human, UniProt P06756 31-992; P05106 27-718); experiment: SEC
human αVβ3 integrin ectodomain (purchased, lyophilized) (human, UniProt P06756 31-992; P05106 27-718), sequence (P06756 31-992, chain 1 of 2): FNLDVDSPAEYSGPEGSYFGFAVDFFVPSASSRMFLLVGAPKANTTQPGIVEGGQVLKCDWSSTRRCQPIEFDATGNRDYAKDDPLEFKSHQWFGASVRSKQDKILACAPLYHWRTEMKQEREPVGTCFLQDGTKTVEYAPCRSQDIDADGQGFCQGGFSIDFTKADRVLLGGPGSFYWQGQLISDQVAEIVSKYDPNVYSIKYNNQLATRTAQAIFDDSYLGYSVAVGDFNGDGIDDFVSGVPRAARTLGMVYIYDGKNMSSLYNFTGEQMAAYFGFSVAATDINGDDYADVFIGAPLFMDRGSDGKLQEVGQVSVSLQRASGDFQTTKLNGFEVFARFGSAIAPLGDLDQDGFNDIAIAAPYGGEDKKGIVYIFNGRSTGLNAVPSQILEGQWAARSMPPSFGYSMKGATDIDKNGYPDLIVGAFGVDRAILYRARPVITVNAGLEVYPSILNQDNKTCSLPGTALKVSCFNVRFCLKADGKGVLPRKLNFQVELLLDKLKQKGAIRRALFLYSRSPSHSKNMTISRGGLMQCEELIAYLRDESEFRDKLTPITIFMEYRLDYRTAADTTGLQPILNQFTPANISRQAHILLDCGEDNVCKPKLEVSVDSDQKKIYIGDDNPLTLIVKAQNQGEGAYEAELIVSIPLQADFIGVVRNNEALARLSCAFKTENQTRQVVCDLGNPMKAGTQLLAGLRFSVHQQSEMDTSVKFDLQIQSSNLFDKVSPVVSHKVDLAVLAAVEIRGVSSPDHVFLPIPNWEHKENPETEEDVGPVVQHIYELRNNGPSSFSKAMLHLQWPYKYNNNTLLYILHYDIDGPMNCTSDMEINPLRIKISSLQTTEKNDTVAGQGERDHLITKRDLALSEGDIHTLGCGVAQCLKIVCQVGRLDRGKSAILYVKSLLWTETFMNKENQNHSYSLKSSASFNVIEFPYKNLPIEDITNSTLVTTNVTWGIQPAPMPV
human αVβ3 integrin ectodomain (purchased, lyophilized) (human, UniProt P06756 31-992; P05106 27-718), sequence (P05106 27-718, chain 2 of 2): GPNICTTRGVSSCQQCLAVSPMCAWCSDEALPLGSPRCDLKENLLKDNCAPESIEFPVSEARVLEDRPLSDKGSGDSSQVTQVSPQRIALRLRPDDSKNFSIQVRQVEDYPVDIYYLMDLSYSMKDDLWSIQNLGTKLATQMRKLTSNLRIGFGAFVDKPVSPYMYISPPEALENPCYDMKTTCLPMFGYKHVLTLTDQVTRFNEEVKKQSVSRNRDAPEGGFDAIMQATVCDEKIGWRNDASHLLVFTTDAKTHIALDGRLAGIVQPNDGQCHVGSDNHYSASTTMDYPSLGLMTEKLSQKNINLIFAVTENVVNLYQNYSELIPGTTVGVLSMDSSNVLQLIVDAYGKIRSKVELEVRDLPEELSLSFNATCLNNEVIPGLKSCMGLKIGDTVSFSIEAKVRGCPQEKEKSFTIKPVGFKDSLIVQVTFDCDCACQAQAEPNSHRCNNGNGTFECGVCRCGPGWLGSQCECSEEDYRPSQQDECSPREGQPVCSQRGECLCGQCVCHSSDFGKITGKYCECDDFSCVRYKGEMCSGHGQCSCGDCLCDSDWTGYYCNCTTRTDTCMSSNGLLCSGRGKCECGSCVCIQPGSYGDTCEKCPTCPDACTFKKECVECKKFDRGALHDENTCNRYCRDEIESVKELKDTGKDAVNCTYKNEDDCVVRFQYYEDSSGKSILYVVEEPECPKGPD

human αVβ3 integrin ectodomain (purchased, lyophilized) (human, UniProt P06756;P05106), sequence (P06756 31-992, chain 1 of 2): as the sequence (P06756 31-992, chain 1 of 2) above
human αVβ3 integrin ectodomain (purchased, lyophilized) (human, UniProt P06756;P05106), sequence (P05106 27-718, chain 2 of 2): as the sequence (P05106 27-718, chain 2 of 2) above

Kd [1]: 0.023 µM | koff [1]: 0.0034 s⁻¹ | kon [1]: 150000 M⁻¹ s⁻¹
B1: Fab LM609 (recombinant antigen-binding fragment of the mouse monoclonal antibody LM609) (Fab, V domains shown)
VH: EVQLEESGGGLVKPGGSLKLSCAASGFAFSSYDMSWVRQIPEKRLEWVAKVSSGGGSTYYLDTVQGRFTISRDNAKNTLYLQMSSLNSEDTAMYYCARHNYGSFAYWGQGTLVTVSA
VL: ELVMTQTPATLSVTPGDSVSLSCRASQSISNHLHWYQQKSHESPRLLIKYASQSISGIPSRFSGSGSGTDFTLSINSVETEDFGMYFCQQSNSWPHTFGGGTKLEIK

binding result [2]: binds
Binder: {FITC}-GRGDSPK [FITC-GRGDSPK peptide]
